# In IntAct's records for PubMed 29892012:
# B1: Glucosamine-6-phosphate deaminase 2 (Homo sapiens), Q8TDQ7 (parent)
# chain: MRLVILDNYDLASEWAAKYICNRIIQFKPGQDRYFTLGLPTGSTPLGCYKKLIEYHKNGHLSFKYVKTFNMDEYVGLPRNHPESYHSYMWNNFFKHIDIDPNNAHILDGNAADLQAECDAFENKIKEAGGIDLFVGGIGPDGHIAFNEPGSSLVSRTRLKTLAMDTILANAKYFDGDLSKVPTMALTVGVGTVMDAREVMILITGAHKAFALYKAIEEGVNHMWTVSAFQQHPRTIFVCDEDATLELRVKTVKYFKGLMHVHNKLVDPLFSMKDGN
# partner: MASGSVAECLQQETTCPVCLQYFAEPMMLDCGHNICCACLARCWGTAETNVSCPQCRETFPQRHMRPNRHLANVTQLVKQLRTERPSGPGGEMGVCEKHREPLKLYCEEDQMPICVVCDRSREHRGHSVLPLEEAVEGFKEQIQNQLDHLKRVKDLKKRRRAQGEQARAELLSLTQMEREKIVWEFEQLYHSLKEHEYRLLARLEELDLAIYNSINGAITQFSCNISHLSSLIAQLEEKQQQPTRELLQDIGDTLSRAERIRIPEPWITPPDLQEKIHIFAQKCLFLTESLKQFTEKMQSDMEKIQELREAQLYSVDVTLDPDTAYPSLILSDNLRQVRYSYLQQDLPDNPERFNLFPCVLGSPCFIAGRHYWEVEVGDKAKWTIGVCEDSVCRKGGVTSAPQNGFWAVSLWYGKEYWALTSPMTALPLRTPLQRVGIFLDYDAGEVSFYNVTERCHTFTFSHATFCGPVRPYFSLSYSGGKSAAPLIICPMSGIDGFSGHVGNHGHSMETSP
# B2: Rho guanine nucleotide exchange factor 3 (Homo sapiens), Q9NR81 (parent)
# chain: MVAKDYPFYLTVKRANCSLELPPASGPAKDAEEPSNKRVKPLSRVTSLANLIPPVKATPLKRFSQTLQRSISFRSESRPDILAPRPWSRNAAPSSTKRRDSKLWSETFDVCVNQMLTSKEIKRQEAIFELSQGEEDLIEDLKLAKKAYHDPMLKLSIMTEQELNQIFGTLDSLIPLHEELLSQLRDVRKPDGSTEHVGPILVGWLPCLSSYDSYCSNQVAAKALLDHKKQDHRVQDFLQRCLESPFSRKLDLWNFLDIPRSRLVKYPLLLREILRHTPNDNPDQQHLEEAINIIQGIVAEINTKTGESECRYYKERLLYLEEGQKDSLIDSSRVLCCHGELKNNRGVKLHVFLFQEVLVITRAVTHNEQLCYQLYRQPIPVKDLLLEDLQDGEVRLGGSLRGAFSNNERIKNFFRVSFKNGSQSQTHSLQANDTFNKQQWLNCIRQAKETVLCAAGQAGVLDSEGSFLNPTTGSRELQGETKLEQMDQSDSESDCSMDTSEVSLDCERMEQTDSSCGNSRHGESNV
# partner: B1 partner
# B3: Zinc finger and BTB domain-containing protein 49 (Homo sapiens), Q6ZSB9 (parent)
# chain: MDPVATHSCHLLQQLHEQRIQGLLCDCMLVVKGVCFKAHKNVLAAFSQYFRSLFQNSSSQKNDVFHLDVKNVSGIGQILDFMYTSHLDLNQDNIQVMLDTAQCLQVQNVLSLCHTFLKSATVVQPPGMPCNSTLSLQSTLTPDATCVISENYPPHLLQECSADAQQNKTLDESHPHASPSVNRHHSAGEISKQAPDTSDGSCTELPFKQPNYYYKLRNFYSKQYHKHAAGPSQERVVEQPFAFSTSTDLTTVESQPCAVSHSECILESPEHLPSNFLAQPVNDSAPHPESDATCQQPVKQMRLKKAIHLKKLNFLKSQKYAEQVSEPKSDDGLTKRLESASKNTLEKASSQSAEEKESEEVVSCENFNCISETERPEDPAALEDQSQTLQSQRQYACELCGKPFKHPSNLELHKRSHTGEKPFECNICGKHFSQAGNLQTHLRRHSGEKPYICEICGKRFAASGDVQRHIIIHSGEKPHLCDICGRGFSNFSNLKEHKKTHTADKVFTCDECGKSFNMQRKLVKHRIRHTGERPYSCSACGKCFGGSGDLRRHVRTHTGEKPYTCEICNKCFTRSAVLRRHKKMHCKAGDESPDVLEELSQAIETSDLEKSQSSDSFSQDTSVTLMPVSVKLPVHPVENSVAEFDSHSGGSYCKLRSMIQPHGVSDQEKLSLDPGKLAKPQMQQTQPQAYAYSDVDTPAGGEPLQADGMAMIRSSLAALDNHGGDPLGSRASSTTYRNSEGQFFSSMTLWGLAMKTLQNENELDQ
# partner: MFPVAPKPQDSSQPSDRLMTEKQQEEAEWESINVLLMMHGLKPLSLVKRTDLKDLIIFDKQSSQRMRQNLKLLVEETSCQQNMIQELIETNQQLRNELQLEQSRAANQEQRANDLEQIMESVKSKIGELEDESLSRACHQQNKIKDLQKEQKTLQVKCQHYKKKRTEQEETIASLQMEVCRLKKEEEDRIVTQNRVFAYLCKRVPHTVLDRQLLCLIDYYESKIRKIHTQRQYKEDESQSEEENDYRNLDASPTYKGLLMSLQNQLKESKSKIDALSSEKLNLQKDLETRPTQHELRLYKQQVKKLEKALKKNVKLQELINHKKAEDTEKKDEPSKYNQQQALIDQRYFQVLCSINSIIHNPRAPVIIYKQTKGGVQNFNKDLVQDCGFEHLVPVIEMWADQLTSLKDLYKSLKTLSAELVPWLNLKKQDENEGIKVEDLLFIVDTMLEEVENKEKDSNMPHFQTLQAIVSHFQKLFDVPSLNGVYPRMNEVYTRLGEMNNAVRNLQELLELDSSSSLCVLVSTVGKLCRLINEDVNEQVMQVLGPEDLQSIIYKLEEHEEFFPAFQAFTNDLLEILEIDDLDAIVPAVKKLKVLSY
# B4: Abl interactor 2 (Homo sapiens), Q9NYB9 (parent)
# chain: MAELQMLLEEEIPGGRRALFDSYTNLERVADYCENNYIQSADKQRALEETKAYTTQSLASVAYLINTLANNVLQMLDIQASQLRRMESSINHISQTVDIHKEKVARREIGILTTNKNTSRTHKIIAPANLERPVRYIRKPIDYTILDDIGHGVKWLLRFKVSTQNMKMGGLPRTTPPTQKPPSPPMSGKGTLGRHSPYRTLEPVRPPVVPNDYVPSPTRNMAPSQQSPVRTASVNQRNRTYSSSGSSGGSHPSSRSSSRENSGSGSVGVPIAVPTPSPPSVFPAPAGSAGTPPLPATSASAPAPLVPATVPSSTAPNAAAGGAPNLADGFTSPTPPVVSSTPPTGHPVQFYSMNRPASRHTPPTIGGSLPYRRPPSITSQTSLQNQMNGGPFYSQNPVSDTPPPPPPVEEPVFDESPPPPPPPEDYEEEEAAVVEYSDPYAEEDPPWAPRSYLEKVVAIYDYTKDKEDELSFQEGAIIYVIKKNDDGWYEGVMNGVTGLFPGNYVESIMHYSE
# partner: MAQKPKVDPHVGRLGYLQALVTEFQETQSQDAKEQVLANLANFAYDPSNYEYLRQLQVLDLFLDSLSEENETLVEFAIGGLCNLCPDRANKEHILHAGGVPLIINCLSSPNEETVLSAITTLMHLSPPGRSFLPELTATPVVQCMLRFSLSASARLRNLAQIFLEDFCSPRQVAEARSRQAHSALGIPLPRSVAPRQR
# B5: Abl interactor 2 (Homo sapiens), Q9NYB9 (parent)
# chain: B4 chain
# partner: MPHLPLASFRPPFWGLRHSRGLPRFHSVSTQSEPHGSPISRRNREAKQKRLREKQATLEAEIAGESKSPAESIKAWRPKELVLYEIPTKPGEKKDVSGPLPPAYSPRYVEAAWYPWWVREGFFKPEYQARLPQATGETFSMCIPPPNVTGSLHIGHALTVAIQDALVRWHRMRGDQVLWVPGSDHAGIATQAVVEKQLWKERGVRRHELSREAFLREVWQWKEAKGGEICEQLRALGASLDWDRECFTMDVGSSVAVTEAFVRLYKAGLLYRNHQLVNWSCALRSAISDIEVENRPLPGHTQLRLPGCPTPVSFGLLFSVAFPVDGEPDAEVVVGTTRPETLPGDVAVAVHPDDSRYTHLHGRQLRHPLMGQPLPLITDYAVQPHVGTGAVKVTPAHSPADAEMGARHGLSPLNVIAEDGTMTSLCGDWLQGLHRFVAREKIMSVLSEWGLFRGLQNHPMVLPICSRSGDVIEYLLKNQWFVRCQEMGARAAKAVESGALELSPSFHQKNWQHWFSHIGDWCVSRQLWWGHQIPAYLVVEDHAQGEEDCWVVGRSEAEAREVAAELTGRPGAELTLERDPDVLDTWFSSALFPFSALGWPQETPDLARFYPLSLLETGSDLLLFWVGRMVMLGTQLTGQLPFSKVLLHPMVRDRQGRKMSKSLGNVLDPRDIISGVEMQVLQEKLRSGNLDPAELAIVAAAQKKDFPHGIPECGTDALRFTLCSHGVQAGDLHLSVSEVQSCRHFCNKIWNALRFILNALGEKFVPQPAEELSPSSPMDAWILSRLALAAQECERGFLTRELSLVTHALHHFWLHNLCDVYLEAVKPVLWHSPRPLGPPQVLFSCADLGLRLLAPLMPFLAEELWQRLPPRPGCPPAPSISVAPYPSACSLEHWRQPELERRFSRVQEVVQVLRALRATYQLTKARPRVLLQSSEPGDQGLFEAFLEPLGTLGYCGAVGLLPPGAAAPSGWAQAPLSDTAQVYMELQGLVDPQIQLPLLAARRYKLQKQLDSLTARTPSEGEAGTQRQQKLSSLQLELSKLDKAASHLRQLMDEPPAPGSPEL
# B6: Abl interactor 2 (Homo sapiens), Q9NYB9 (parent)
# chain: B4 chain
# partner: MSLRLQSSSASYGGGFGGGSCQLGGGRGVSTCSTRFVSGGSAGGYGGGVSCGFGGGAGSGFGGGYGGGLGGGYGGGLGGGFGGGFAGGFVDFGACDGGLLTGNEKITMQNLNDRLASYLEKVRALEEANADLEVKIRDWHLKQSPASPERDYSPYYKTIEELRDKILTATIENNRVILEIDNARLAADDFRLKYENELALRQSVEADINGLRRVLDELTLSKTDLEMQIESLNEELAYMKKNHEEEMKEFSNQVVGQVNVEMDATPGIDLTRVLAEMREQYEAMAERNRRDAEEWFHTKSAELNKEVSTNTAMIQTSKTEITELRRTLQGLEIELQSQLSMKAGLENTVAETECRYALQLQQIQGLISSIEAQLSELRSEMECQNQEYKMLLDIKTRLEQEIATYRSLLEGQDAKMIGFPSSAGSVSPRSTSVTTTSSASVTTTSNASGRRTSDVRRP
# Variants of: B1
# Details: with tri27_human TRIM27, P14373
row,Variant,effect of a mutation on the interaction
1,I216V,with no effect

# Variants of: B2
# Details: with tri27_human TRIM27, P14373
row,Variant,effect of a mutation on the interaction
1,P34S,with no effect

# Variants of: B3
# Details: with cep70_human CEP70, Q8NHQ1
row,Variant,effect of a mutation on the interaction
1,D88V,with no effect

# Variants of: B4
# Details: with armc7_human ARMC7, Q9H6L4
row,Variant,effect of a mutation on the interaction
1,E202K,with no effect

# Variants of: B5
# Details: with syvm_human VARS2, Q5ST30
row,Variant,effect of a mutation on the interaction
1,E202K,with no effect

# Variants of: B6
# Details: with KRT13, P13646
row,Variant,effect of a mutation on the interaction
1,R373C,with no effect
